From publication PMC11385703 come the findings set out here.

What is called koff is the rate constant with which the complex falls apart. Read a low koff as slow dissociation. Broadly, the Kd is the free concentration of one partner at which half of the binding sites on the other are occupied at equilibrium, for simple one-to-one binding. For orientation: kon means a measure of how fast the partners come together. A low value points to slower complex formation.

The target in assay [1] is Myotoxin II, biotinylated (Bothrops asper) (UniProt P24605). The assay can be described thus: BLI; […]) biosensors; […]; dissociation for 600 s in HEPES-MES pH 3.5; 25°C; 1:1 binding model, […]. A general note: BLI is a label-free optical method that tracks binding on a fibre tip over time.
For assay [2] the target is unchanged. The assay can be described thus: BLI; […]) biosensors; […]; dissociation for 600 s in HEPES-MES pH 4.0; 25°C; 1:1 binding model, […].
For assay [3] the target is unchanged. The assay can be described thus: BLI; […]) biosensors; […]; dissociation for 600 s in HEPES-MES pH 4.5; 25°C; 1:1 binding model, […].
The target is the same in assay [4]. The experiment in a line: BLI; […]) biosensors; […]; dissociation for 600 s in HEPES-MES pH 5.0; 25°C; 1:1 binding model, […].
The target is the same in assay [5]. The experiment in a line: BLI; […]) biosensors; […]; dissociation for 600 s in HEPES-MES pH 5.5; 25°C; 1:1 binding model, […].
For assay [6] the target is unchanged. The experiment in a line: BLI; […]) biosensors; […]; dissociation for 600 s in HEPES-MES pH 6.0; 25°C; 1:1 binding model, […].
Assay [7] shares this target. The experiment in a line: BLI; […]) biosensors; […]; dissociation for 600 s in HEPES-MES pH 6.5; 25°C; 1:1 binding model, […].
For assay [8] the target is unchanged. The experiment in a line: BLI; […]) biosensors; […]; association in HEPES-MES pH 7.4 for 300 s, dissociation in HEPES-MES pH 5.5 for 600 s; 1:1 binding model, […].
Assay [9] shares this target. The assay can be described thus: BLI; […]) biosensors; […]; association in HEPES-MES pH 7.4 for 300 s, dissociation in HEPES-MES pH 7.4 for 600 s; 1:1 binding model, […].

Chain of Myotoxin II, biotinylated (Bothrops asper) (P24605 17-137): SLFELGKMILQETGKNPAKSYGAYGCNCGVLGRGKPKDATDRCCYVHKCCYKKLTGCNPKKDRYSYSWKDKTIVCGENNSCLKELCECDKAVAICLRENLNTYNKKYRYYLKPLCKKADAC

B1: TPL0039_05_A03 Fab (Fab, V domains shown)
VH: QVQLVESGGGLAKPGRSLRLSCAVSGFTFSSYGMHWVRQAPGKGLEWVAVISYDGSNKYYADSVKGRFTISRDNSKNTLYLQMNSLRAEDTAVYYCASTLQQLDAFDIWGQGTMVTVSS
VL: NFMLTQPHSVSESPGKTITISCTRSSGSIASNYVQWYQQRPGSVPTPVIYEDDRRPSGVPDRFSGSIDSSSNSASLTISGLKTEDEADYYCQSYDSSSVVFGGGTKITVL
Consider B1, for which the koff in [1] was determined as 0.059 s⁻¹; in [2], 0.01 s⁻¹; in assay [3] it was 0.0038 s⁻¹; in assay [4], 0.0016 s⁻¹; in assay [5] it was 0.0012 s⁻¹; in [6] it was 0.00069 s⁻¹. Also, the koff in [7] came out at 0.00058 s⁻¹; in [8] it was 0.0011 s⁻¹; in [9] it was 0.00031 s⁻¹. For the same molecule, the results for the Kd in assay [8] and in assay [9] were 6.04 nM and 1.5 nM, respectively. For the same molecule, the kon in assay [8] was found to be 180000 M⁻¹ s⁻¹; in [9], 200000 M⁻¹ s⁻¹.
